From article PMC6926464, “Gating control of the cardiac sodium channel Nav1.5 by its β3-subunit involves distinct roles for a transmembrane glutamic acid and the extracellular domain” (The Journal of Biological Chemistry, 2019)
Where “and” joins values, the source holds several entries; their conditions need not be identical. Identical values can stand only once.

B1: full-length WT β3-subunit with C-terminal EGFP tag (natural protein, human, UniProt Q9NY72 23-215, looked up)
chain: FPVCVEVPSETEAVQGNPMKLRCISCMKREEVEATTVVEWFYRPEGGKDFLIYEYRNGHQEVESPFQGRLQWNGSKDLQDVSITVLNVTLNDSGLYTCNVSREFEFEAHRPFVKTTRLIPLRVTEEAGEDFTSVVSEIMMYILLVFLTLWLLIEMIYCYRKVSKAEEAAQENASDYLAIPSENKENSAVPVEE
notes: voltage-gated sodium channel auxiliary β3-subunit, full-length; glycosylated (multiple bands on SDS-PAGE); also called WT-β3-EGFP; FL β3-EGFP; source: HEK293F, transfected (pcDNA3 WT-β3-EGFP), in lysate; not shown: EGFP, C-terminal, kept
B2: full-length β3-subunit E176K with C-terminal EGFP tag (natural protein, human, UniProt Q9NY72 23-215, looked up)
chain: FPVCVEVPSETEAVQGNPMKLRCISCMKREEVEATTVVEWFYRPEGGKDFLIYEYRNGHQEVESPFQGRLQWNGSKDLQDVSITVLNVTLNDSGLYTCNVSREFEFEAHRPFVKTTRLIPLRVTEEAGEDFTSVVSEIMMYILLVFLTLWLLIKMIYCYRKVSKAEEAAQENASDYLAIPSENKENSAVPVEE
notes: voltage-gated sodium channel auxiliary β3-subunit, full-length, with E176K in the transmembrane region; residues numbered from the start codon of the cDNA; Made by site-directed mutagenesis of WT-β3-EGFP; also called β3-E176K-EGFP; E176K-EGFP; source: HEK293F, transfected, in lysate; not shown: EGFP, C-terminal, kept

Target: the molecule itself
Assay: cross-linking; HEK293F cells singly transfected with EGFP-tagged β3 constructs; lysate (Hanks' balanced salt solution, 1% Triton X-100, 0.2% SDS, 0.5% sodium deoxycholate) incubated with BS3 (5 mM) for 1 h at 4 °C, quenched with glycine; SDS-PAGE and anti-GFP Western blot

Protein	stoichiometry N
B1	2 and 3
B2	2 and 3
